Values of other authors, collected in publication PMC10919381.
Where two headings read alike, the source gives them in different places.

How the values were obtained:
[1] = molecular target: CBP/p300 TAZ1 (Homo sapiens) (UniProt Q92793)
[2] = molecular target: CBP/p300 TAZ1 (Homo sapiens) (UniProt Q92793); remark: listed apart in the source

Sequence of UniProt Q92793 (Q92793 347-433): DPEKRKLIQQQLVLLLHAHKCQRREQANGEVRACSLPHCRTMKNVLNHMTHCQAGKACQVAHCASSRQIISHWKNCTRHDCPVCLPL

Kd [1] [µM] | Kd [2] [µM] | Substance
0.01 |  | CITED2 (from UniProt Q99967)
 | 0.01 | HIF-1α (from UniProt Q16665)
